1 substance from patent publication US20250340661A1, “ANTI CD40 ANTIBODY, ANTIGEN BINDING FRAGMENT AND MEDICAL USE THEREOF” (Jiangsu Hengrui Pharmaceuticals Co., Ltd., priority 2021, published 2025) can be followed below.

Series [1] deals with T1, Raji cell surface human CD40 (Homo sapiens, UniProt P25942).
T1 construct: Raji cells highly express human CD40 on the cell surface; endogenous in cells; host or cells: Raji cells (Burkitt lymphoma line)
Kind of series: FACS binding of humanized anti-CD40 antibodies to Raji cells. Here is the method:
Raji cells highly express human CD40 on the cell surface and thus can be used to detect the binding of CD40 antagonistic antibodies to the cell surface human CD40.
Raji cells were plated at 1.5E5/well, and various concentrations of CD40 antagonistic antibodies were added. The plate was incubated at 4° C. for 1 h. After two washes with FACS buffer (PBS+2% FBS), a secondary antibody (Alexa Flour488 conjugated anti-human IgG (H+L) antibody) was added, and the plate was incubated at 4° C. for 0.5 h.
After two washes with FACS buffer, the fluorescence intensity on the cell surface was measured by flow cytometry (BD FACS Celesta).
(In general: A flow cytometer gives signals particle by particle.)

For series [2], the target named is T2, CD40 (Homo sapiens, UniProt P25942). Kind of series: B cell activation assay system (human PBMCs, CD40L stimulation). More on the design: endogenous in cells; host or cells: human PBMCs (CD19+ B cells read out). The series is classed as cell-based. Conditions: CD40L-his + anti-His overnight. Here is the method:
CD40 is highly expressed in B cells, and CD40L, upon binding to CD40, can induce B cell activation and up-regulate the expression of a series of activation markers. CD40 antagonistic antibodies block the binding of CD40L to CD40, thereby eliminating the immune activation process of B cells.
Human PBMCs were plated at 2E5/well, 50 μL/well into a 96-well cell culture plate (the medium was RPMI-1640, 10% FBS, 1% penicillin-streptomycin). Serially diluted test antibodies were added at 50 μL/well, and the cells were co-incubated at 37° C. in 5% CO2 for 0.5 h. CD40L-his and an anti-His antibody were added to each well for overnight stimulation. The following day, the plate was centrifuged, the supernatant was removed, and the cells were washed twice with FACS buffer and stained at room temperature for 15 min with 100 μL of Fixable viability dye EF780 (Invitrogen, 65086514) diluted at 1:1000. The cells were washed twice and then blocked at room temperature for 10 min with 100 μL of human Fc blocker (BD, 564220) diluted at 1:200. After centrifugation, the cells were incubated at 4° C. for 0.5 h with flow cytometry antibodies (PerCP/Cyanine5.5 anti-human CD19 (Biolegend, 302230), and APC anti-human CD69 (Biolegend, 310910)) diluted at 1:200. After centrifugation, the supernatant was removed, the cells were washed twice with FACS buffer and then resuspended in 200 μL of PBS, and the fluorescence intensity on the cell surface was measured by flow cytometry (BD FACS Celesta).
With reference to the method in Example 10, the inhibitory activity of the anti-CD40 antibodies 2F12-L4H2-AAYTE and 9E6-L4H2-AAYTE, which carry the AAYTE mutation in the Fc, in the B cell activation assay system was measured.

Series [3] is described as follows: PK assay in human CD40 transgenic mice. The format is in vivo, mouse. The note with it: hCD40 transgenic mice, 10 mg/kg intraperitoneal, plasma. An excerpt:
The plate was washed three times with wash buffer.

Series [4] has as its target T2, CD40. Kind of series: DC cell activation assay system (monocyte-derived DCs, CD40L stimulation). Also on record: endogenous in cells; host or cells: human PBMCs (CD19+ B cells read out). The series is classed as cell-based. An excerpt:
CD40 is highly expressed on dendritic cells (DCs), and CD40L, upon binding to CD40, can induce DC activation, up-regulate the expression of multiple activation markers on the DC Cell surface, and promote the secretion of multiple inflammatory factors from DCs, further amplifying immune responses. CD40 antagonistic antibodies block the binding of CD40L to CD40, thereby eliminating the immune activation process of DC cells.
Monocytes were sorted and enriched from fresh primary human peripheral blood PBMCs using the EsaySep™ human CD14 sorting kit (Stemcell, 19359), and differentiated for 6 days with RPMI-1640 medium (10% FBS, 1% penicillin-streptomycin), 50 ng/mL IL-4 (PeproTech, 200-04) and 50 ng/mL GM-CSF (PeproTech, 300-03). On day 7, the differentiated DC cells were plated at 1E5/well into a 96-well cell culture plate. Serially diluted test antibodies were added to the wells, and the cells were co-incubated at 37° C. in 5% CO2 for 0.5 h. CD40L-his and an anti-His antibody were then added to each well at final concentrations. After 48 h of culture, the level of DC cell activation was measured by flow cytometry: after centrifugation, the supernatant was removed, and the cells were washed twice with FACS buffer (PBS+2% FBS) and stained at room temperature for 15 min with 100 μL of Fixable viability dye EF780 (Invitrogen, 65086514) diluted at 1:1000. The cells were washed twice and then blocked at room temperature for 10 min with 100 μL of human Fc blocker (BD, 564220) diluted at 1:200. After centrifugation, the cells were incubated at 4° C. for 0.5 h with flow cytometry antibodies (Alexa Fluor®700 anti-human CD11c (Biolegend, 337220), Brilliant Violet 421™ anti-human CD80 (Biolegend, 305221), and APC anti-human CD86 (Biolegend, 305412)) diluted at 1:200. After centrifugation, the supernatant was removed, the cells were washed twice with FACS buffer and then resuspended in 200 μL of PBS, and the fluorescence intensity on the cell surface was measured by flow cytometry (BD FACS Celesta).
In addition, the level of cytokine secretion in the supernatant was measured after 24 h (TNFα, Cisbio, 62[…]) and 48 h (IL-12/23 p40, Novus, VAL121) of culture. According to the results shown in Table 14 and FIGS. 3A to 3D, 9E6-L4H2 and 2F12-L4H2 have similar DC cell inhibition activity to the control antibody CFZ533.
With reference to the method in Example 11, the inhibitory activity of the anti-CD40 antibodies 2F12-L4H2-AAYTE and 9E6-L4H2-AAYTE, which carry the AAYTE mutation in the Fc, in the DC cell activation assay system was measured.

T2 sequence (P25942 21-277): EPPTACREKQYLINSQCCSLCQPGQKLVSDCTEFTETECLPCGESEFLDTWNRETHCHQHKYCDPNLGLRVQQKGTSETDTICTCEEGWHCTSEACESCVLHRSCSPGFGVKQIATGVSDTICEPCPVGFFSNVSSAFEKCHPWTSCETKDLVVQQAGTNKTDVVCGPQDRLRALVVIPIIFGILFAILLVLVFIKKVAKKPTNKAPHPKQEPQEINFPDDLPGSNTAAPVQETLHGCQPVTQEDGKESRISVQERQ
T1 sequence (P25942 21-277): as above

For the substance “CFZ533: anti-CD40 antagonistic antibody (iscalimab), positive control; variable regions from U.S. Pat. No. 8,277,810B [reference compound]”, in series [1], the EC50 (as a rule, the concentration needed to bring the measured effect to its halfway point) turned out to be 1.01 nM. For the same substance, in the series with CD40 [2], the “CD19+CD69+ % Maximum inhibition rate” value was determined as 95%. In addition, the “CD19+CD69+ MFI Maximum inhibition rate” value with CD40 [2] turned out to be 110%. Also, the IC50 with CD40 [2] (read-out: CD19+CD69+ % IC50) was determined as 0.14 nM; with CD40 [2] (read-out: CD19+CD69+ MFI IC50), 0.07 nM; with CD40 [4] (48 h culture, read-out: IC50 in DC cell activation assay system, CD80 MFI) it was 1.19 nM; with CD40 [4] (48 h culture, read-out: IC50 in DC cell activation assay system, CD86 MFI), 1.93 nM; in the series with CD40 [4] (supernatant, 24 h, read-out: IC50 in DC cell activation assay system, TNFα), 0.35 nM; with CD40 [4] (supernatant, 48 h, read-out: IC50 in DC cell activation assay system, IL-12/23 p40), 0.68 nM. Besides, the “AUC(0-d 14)” value in series [3] is 12655 (h)*(mg/L). Moreover, the Cmax (commonly the maximum level reached in the sampled fluid or tissue) in series [3] is 75.95 µg/mL. In addition, the T½ in series [3] was 214.8 h.
